In US20220204602A1:

Key:
[1] = target: Cynomolgus C5 (Cynomolgus); assay: BLI (Gator); pH 5.8
[2] = target: Cynomolgus C5 (Cynomolgus); assay: BLI (Gator); pH 7.4
human FcRn (human) = human FcRn (human) (UniProt P55899); assay: SPR (Biacore); pH 6.0
Chain of human FcRn (human) (P55899 24-297, chain 1 of 2): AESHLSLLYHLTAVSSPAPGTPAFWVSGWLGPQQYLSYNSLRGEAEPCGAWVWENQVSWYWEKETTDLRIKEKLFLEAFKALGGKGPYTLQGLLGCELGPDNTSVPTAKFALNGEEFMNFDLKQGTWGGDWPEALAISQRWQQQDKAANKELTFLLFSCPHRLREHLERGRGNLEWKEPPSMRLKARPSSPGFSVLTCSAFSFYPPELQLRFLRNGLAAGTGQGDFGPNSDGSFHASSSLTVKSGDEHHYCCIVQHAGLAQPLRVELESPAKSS
Chain of human FcRn (human) (main, as listed by the source, chain 2 of 2): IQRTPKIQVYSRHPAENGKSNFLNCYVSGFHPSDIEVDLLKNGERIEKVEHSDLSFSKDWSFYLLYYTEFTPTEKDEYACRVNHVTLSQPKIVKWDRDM

anti-C5 mAb/FH SCR1-5 fusion protein FMEH-IgG4PLA-FH1-5 (from UniProt P08603 19-322)
Kd [1]: 41.1 nM
Kd [2]: 6.04 nM
Ka (human FcRn (human)): 1.13e+08 M⁻¹
